Reference: patent US7488588 (LICENTIA, dated 2009)

T1: human neurturin (NRTN) (human, UniProt Q99748 96-197)
T1 sequence (looked up): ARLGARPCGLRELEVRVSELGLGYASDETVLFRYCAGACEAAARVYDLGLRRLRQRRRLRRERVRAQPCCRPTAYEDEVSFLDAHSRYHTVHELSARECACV

T2: rat GDNF (glial cell line-derived neurotrophic factor) (rat, UniProt Q07731 78-211)
T2 sequence (looked up): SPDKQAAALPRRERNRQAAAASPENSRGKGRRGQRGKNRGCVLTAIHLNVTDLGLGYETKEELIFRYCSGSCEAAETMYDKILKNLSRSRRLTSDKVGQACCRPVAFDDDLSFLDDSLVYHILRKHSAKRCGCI

B1: human GFRα4, GPI-anchored isoform a (GFRα4a) (receptor)
chain: VGGNRCVDAAEACTADARCQRLRSEYVAQCLGRAAQGGCPRARCRRALRRFFARGPPALTHALLFCPCAGPACAERRRQTFVPSCAFSGPGPAPPSCLEPLNFCERSRVCRPRLLAFQVSCTPAPSAPDGCLLDQGARCLRAYAGLVGTAVTPNYVDNVSARVAPWCDCGASGNRREDCEAFRGLFTRNRCLDGAIQAFASGWPPVLLDQLNPQGDPEHSLLQVSSTG
modifications: GPI anchor (released by PI-PLC)
notes: Expressed from full-length GFRA4a cDNA (pCR3.1) in mouse Neuro-2a cells (endogenous Ret), in CHO cells (no Ret) or microinjected into mouse SCG neurons; also called hGFRα4; GFRA4a
B2: human persephin (PSPN) (ligand, UniProt O60542 61-156, looked up)
chain: ALSGPCQLWSLTLSVAELGLGYASEEKVIFRYCAGSCPRGARTQHGLALARLQGQGRAHGGPCCRPTRYTDVAFLDDRHRWQRLPQLSAAACGCGG
notes: Cross-linking gels show monomer (approx. 14-16 kDa) and dimer (32 kDa) bands; also called unlabeled PSPN

What was measured:
[1] = molecular target: T1, human neurturin (NRTN); assay: displacement of 0.9 nM [125I]PSPN from GFRA4a-transfected Neuro-2a cells
Procedure: (§1) J. Milbrandt and E. M. Johnson, Jr.). […] was calculated using Cheng-Prusoff equation (McGonigle, et al., 1994).

[2] = molecular target: T2, rat GDNF (glial cell line-derived …); assay: as above
Procedure: as §1

[3] = molecular target: B2; assay: displacement of [125I]PSPN from GFRA4a-transfected Neuro-2a cells; KD calculated using Cheng-Prusoff equation
Procedure: as §1

[4] = molecular target: B1; assay: displacement of 0.9 nM [125I]PSPN by unlabeled PSPN from GFRA4a-transfected Neuro-2a cells (endogenous Ret), 4 hrs on ice
Procedure: as §1

Row | binding result [1] | binding result [2] | Kd [3] | IC50 [4] | Binder
1 | no binding (tested: up to 200 nM) | no binding (tested: up to 300 nM) | ~0.1 nM |  | B1
2 |  |  |  | 1 nM | B2
